Reference: publication PMC6044691 (ACS Omega, 2017)

B1: N-terminal truncated Z,Z-farnesyl diphosphate synthase (ΔzFPS) (enzyme, Solanum habrochaites, UniProt B8XA40 71-303, looked up)
chain: MLDEALMPKHIALIMDGNRRWAKDKGLDVSEGHKHLFPKLKEICDISSKLGIQVITAFAFSTENWKRAKGEVDFLMQMFEELYDEFSRSGVRVSIIGCKTDLPMTLQKCIALTEETTKGNKGLHLVIALNYGGYYDILQATKSIVNKAMNGLLDVEDINKNLFDQELESKCPNPDLLIRTGGDQRVSNFLLWQLAYTEFYFTKTLFPDFGEEDLKEAIINFQQRHRRFGGHTY
B2: ΔzFPS-H103Y mutant (enzyme, Solanum habrochaites, UniProt B8XA40 71-303, looked up)
chain: MLDEALMPKHIALIMDGNRRWAKDKGLDVSEGYKHLFPKLKEICDISSKLGIQVITAFAFSTENWKRAKGEVDFLMQMFEELYDEFSRSGVRVSIIGCKTDLPMTLQKCIALTEETTKGNKGLHLVIALNYGGYYDILQATKSIVNKAMNGLLDVEDINKNLFDQELESKCPNPDLLIRTGGDQRVSNFLLWQLAYTEFYFTKTLFPDFGEEDLKEAIINFQQRHRRFGGHTY

Legend:
AUC = target: the molecule itself; test: AUC
crystal structure = target: the molecule itself; test: crystal structure

Row | Protein | stoichiometry N (AUC) | binding result (crystal structure)
1 | B1 | 2 | –
2 | B2 | – | binds
